Experimental data published in patent US20230020546A1, “APPLICATION OF PROGESTIN IN PREPARATION OF DRUG INHIBITING CYTOKINE STORM” (SHENZHEN EVERGREEN THERAPEUTICS CO., LTD., priority 2020, published 2023).

Experiments:
hu-SCID mice [1] = assay: Rectal temperature after antibody injection in hu-SCID mice; type: in vivo
[2] = tested on: circulating cytokines in hu-SCID mice; assay: Circulating cytokines in plasma of hu-SCID mice after OKT3 injection (multiplex immunoassay); type: in vivo; conditions: for Inhibition of OKT3-induced immune (cytokine) storm in an animal model: hu-SCID mice, overall conclusion; for IFN-γ Concentration / IL-1β Concentration / IL-2 Concentration / IL-4 Concentration / IL-5 Concentration / IL-6 Concentration / IL-10 Concentration / TNF-α Concentration: OKT3 10 μg IP alone
Protocol: […] A multiplex immunoassay system was then applied to the collected heparinized plasma to analyze cytokines. Cytokines measured included human IL-1β, IL-2, IL-4, IL-5, IL-6, IL-10, IL-12 (p70), IL-13, IL-17, IFN-γand TNF-α. […] The activation markers thereof were then analyzed by flow cytometry. Human peripheral blood mononuclear cells in the mouse spleen were blocked with 2.4G2 and then stained with fluorescently labeled CD69, CD25, CD45 and CD3.
After antibody injection, in order to determine if a cytokine storm was induced, we detected cytokines (human IL-1β, IL-2, IL-4, IL-5, IL-6, IL-10, IL-12 (p70), IL-13, IL17, IFN-γ and TNF-α) in the plasma of the hu-SCID mice.
On days 8 and 9 after intravenous injection of PBMCs in humanized mice (48 hours and 24 hours before antibody injection), a candidate drug PR2005 (5 mg/kg) was injected intraperitoneally to the animals. […] The results are detailed in Tables 1-4.

hu-SCID mice [3] = conditions: mouse, in vivo, ip
Protocol: (§1) Each humanized mouse for the test was first intravenously injected with 2×10^7 PBMCs. After 10 days, each mouse was injected with OKT3 or control IgG (2 μg or 10 μg, IV or IP).
(§2) Clinical score measurement: as recommended by the Canadian Council for Animal Care (www.ccac.ca/en /standards/guidelines), we conducted preliminary studies to determine the most appropriate clinical symptoms and scoring criteria. […] Score: 0=normal activity; 1=normal activity, hairs upright, and tiptoe gait; 2=arched back, decreased activity, but there are still activities; 3=too few activities, but there are still activities when prompted; 4=dying. Mice with a clinical score of 4 were sacrificed.

hu-SCID mice [4] = assay: Clinical symptoms / clinical score after antibody injection in hu-SCID mice
Protocol: as §1, §2

**Q.** For `CCCCCC(=O)O[C@]1(C(C)=O)CC[C@H]2[C@@H]3CCC4=CC(=O)CC[C@]4(C)[C@H]3CC[C@@]21C` [PR2005, hydroxyprogesterone caproate, reference compound], which “Body temperature change after receiving OKT3” value (hu-SCID mice [1]; PR2005 5 mg/kg IP, 48 hours and 24 hours before antibody injection) is on record?
**A.** no significant changes in body temperature

**Q.** What about the “Concentration of cytokines in the blood vs animals using OKT3 alone” value ([2]; PR2005 5 mg/kg IP before OKT3) of the same molecule?
**A.** substantially lower

**Q.** What about the “Inhibition of OKT3-induced immune (cytokine) storm in an animal model” value [2] of the same molecule?
**A.** can inhibit the OKT3-induced immune storm

**Q.** And the “Inhibition of OKT3-induced immune (cytokine) storm in an animal model” value ([2]; listed as hydroxyprogesterone caproate)?
**A.** can inhibit the cytokine storm

**Q.** For “OKT3: muromonab-CD3 antibody used to induce the cytokine storm in hu-SCID mice”, which “Mice dying and sacrificed” value (hu-SCID mice [3]) is on record?
**A.** one of 5

**Q.** And the Rectal temperature (hu-SCID mice [1]; OKT3 2 μg IP, 0 h)?
**A.** 37.7 °C

**Q.** And the Rectal temperature (hu-SCID mice [1]; OKT3 2 μg IP, 1 h)?
**A.** 35.6 °C

**Q.** And the Rectal temperature (hu-SCID mice [1]; OKT3 2 μg IP, 2 h)?
**A.** 34.8 °C

**Q.** And the Rectal temperature (hu-SCID mice [1]; OKT3 2 μg IP, 5 h)?
**A.** 35.4 °C

**Q.** And the Rectal temperature change (hu-SCID mice [1]; OKT3 2 μg IP, similar to control human IgG)?
**A.** moderate changes

**Q.** And the Rectal temperature (hu-SCID mice [1]; OKT3 2 μg IV, 0 h)?
**A.** 37.7 °C

**Q.** What about the Rectal temperature (hu-SCID mice [1]; OKT3 2 μg IV, 1 h) of the same molecule?
**A.** 31.7 °C

**Q.** And the Rectal temperature (hu-SCID mice [1]; OKT3 2 μg IV, 2 h)?
**A.** 33.8 °C

**Q.** And the Rectal temperature (hu-SCID mice [1]; OKT3 2 μg IV, 5 h)?
**A.** 34.9 °C

**Q.** What about the “Transient hypothermia (rectal temperature)” value (hu-SCID mice [1]; OKT3 2 μg IV, at 1 h, partial recovery after 5 h) of the same molecule?
**A.** about 32 °C

**Q.** And the “Rectal temperature decrease (from 37° C.)” value (hu-SCID mice [1]; OKT3 10 μg IP or IV, within 1 h)?
**A.** ≤ 32 °C

**Q.** What about the Rectal temperature (hu-SCID mice [1]; OKT3 10 μg IP, 0 h) of the same molecule?
**A.** 37.7 °C

**Q.** And the Rectal temperature (hu-SCID mice [1]; OKT3 10 μg IP, 1 h)?
**A.** 31.7 °C

**Q.** What about the Rectal temperature (hu-SCID mice [1]; OKT3 10 μg IP, 2 h) of the same molecule?
**A.** 31.1 °C

**Q.** And the Rectal temperature (hu-SCID mice [1]; OKT3 10 μg IP, 5 h)?
**A.** 30.6 °C

**Q.** What about the Rectal temperature (hu-SCID mice [1]; OKT3 10 μg IV, 0 h) of the same molecule?
**A.** 37.7 °C

**Q.** And the Rectal temperature (hu-SCID mice [1]; OKT3 10 μg IV, 1 h)?
**A.** 31.9 °C

**Q.** What about the Induced cytokines ([2]; OKT3 2 μg IP or IV, any time point) of the same molecule?
**A.** rarely detected

**Q.** And the “Time of TNF-α peak” value ([2]; OKT3 10 μg IP)?
**A.** 1 h

**Q.** What about the “IFN-γ Concentration” value ([2]; 1 h) of the same molecule?
**A.** 7015 pg/mL

**Q.** What about the “IL-1β Concentration” value ([2]; 1 h) of the same molecule?
**A.** 44.0 pg/mL

**Q.** And the “IL-2 Concentration” value ([2]; 1 h)?
**A.** 39.0 pg/mL

**Q.** What about the “IL-4 Concentration” value ([2]; 1 h) of the same molecule?
**A.** 61 pg/mL

**Q.** What about the “IL-5 Concentration” value ([2]; 1 h) of the same molecule?
**A.** 72 pg/mL

**Q.** What about the “IL-6 Concentration” value ([2]; 1 h) of the same molecule?
**A.** 96 pg/mL

**Q.** What about the “IL-10 Concentration” value ([2]; 1 h) of the same molecule?
**A.** 3319 pg/mL

**Q.** And the “TNF-α Concentration” value ([2]; 1 h)?
**A.** 1409 pg/mL

**Q.** And the “IFN-γ Concentration” value ([2]; 2 h)?
**A.** 23574 pg/mL

**Q.** What about the “IL-1β Concentration” value ([2]; 2 h) of the same molecule?
**A.** 77.5 pg/mL

**Q.** And the “IL-2 Concentration” value ([2]; 2 h)?
**A.** 75.9 pg/mL

**Q.** And the “IL-4 Concentration” value ([2]; 2 h)?
**A.** 182 pg/mL

**Q.** What about the “IL-5 Concentration” value ([2]; 2 h) of the same molecule?
**A.** 98 pg/mL

**Q.** And the “IL-6 Concentration” value ([2]; 2 h)?
**A.** 160 pg/mL

**Q.** What about the “IL-10 Concentration” value ([2]; 2 h) of the same molecule?
**A.** 11001 pg/mL

**Q.** And the “TNF-α Concentration” value ([2]; 2 h)?
**A.** 1127 pg/mL

**Q.** And the “IFN-γ Concentration” value ([2]; 5 h)?
**A.** 25783 pg/mL

**Q.** What about the “IL-1β Concentration” value ([2]; 5 h) of the same molecule?
**A.** 97.4 pg/mL

**Q.** And the “IL-2 Concentration” value ([2]; 5 h)?
**A.** 89.4 pg/mL

**Q.** What about the “IL-4 Concentration” value ([2]; 5 h) of the same molecule?
**A.** 259 pg/mL

**Q.** And the “IL-5 Concentration” value ([2]; 5 h)?
**A.** 158 pg/mL

**Q.** What about the “IL-6 Concentration” value ([2]; 5 h) of the same molecule?
**A.** 252 pg/mL

**Q.** What about the “IL-10 Concentration” value ([2]; 5 h) of the same molecule?
**A.** 20052 pg/mL

**Q.** What about the “TNF-α Concentration” value ([2]; 5 h) of the same molecule?
**A.** 655 pg/mL

**Q.** What about the “Induction of cytokines (IL-1β, IL-2, IL-4, IL-5, IL-6, IL-10, IFN-γ)” value ([2]; OKT3 10 μg IP, concentrations gradually increased within 5 h) of the same molecule?
**A.** may induce production of multiple cytokines

**Q.** What about the Symptom observation (hu-SCID mice [4]; OKT3 2 μg IP) of the same molecule?
**A.** unaffected

**Q.** And the “Mice needing to be euthanized” value (hu-SCID mice [4]; OKT3 2 μg IV)?
**A.** Two of four

**Q.** What about the “Response (symptoms)” value (hu-SCID mice [4]; OKT3 2 μg IV, within 1 h) of the same molecule?
**A.** moderate to severe

**Q.** What about the Clinical score (hu-SCID mice [4]; OKT3 10 μg IP) of the same molecule?
**A.** moderate

**Q.** What about the “Response (symptoms)” value (hu-SCID mice [4]; OKT3 10 μg IV) of the same molecule?
**A.** severe

**Q.** And the Mice sacrificed (hu-SCID mice [4]; OKT3 10 μg IV, at 1 h)?
**A.** all mice were sacrificed
